Results from KR20200059381A.

Columns and labels:
[1] = target: 구제역 바이러스 혈청형 O 배양액(cal1~cal4) (Foot-and-mouth disease virus serotype O); experiment: sandwich ELISA, cal2, 1E58 coat 2 ug/ml, 1E58-HRP 0.4 ug/ml, 450 nm
[2] = target: 구제역 바이러스 혈청형 O 배양액(cal1~cal4) (Foot-and-mouth disease virus serotype O); experiment: sandwich ELISA, cal3, 1E58 coat 8 ug/ml, 1E58-HRP 0.2 ug/ml, 450 nm
[3] = target: 구제역 바이러스 혈청형 O 배양액(cal1~cal4) (Foot-and-mouth disease virus serotype O); experiment: sandwich ELISA, cal3, 1E58 coat 2 ug/ml, 1E58-HRP 0.8 ug/ml, 450 nm
[4] = target: 구제역 바이러스 혈청형 O 배양액(cal1~cal4) (Foot-and-mouth disease virus serotype O); experiment: sandwich ELISA, cal3, 1E58 coat 1 ug/ml, 1E58-HRP 0.6 ug/ml, 450 nm
[5] = target: 구제역 바이러스 혈청형 O 배양액(cal1~cal4) (Foot-and-mouth disease virus serotype O); experiment: sandwich ELISA, cal2, 1E58 coat 4 ug/ml, 1E58-HRP 0.4 ug/ml, 450 nm
[6] = target: 구제역 바이러스 혈청형 O 배양액(cal1~cal4) (Foot-and-mouth disease virus serotype O); experiment: sandwich ELISA, cal3, 1E58 coat 1 ug/ml, 1E58-HRP 0.4 ug/ml, 450 nm
[7] = target: 구제역 바이러스 혈청형 O 배양액(cal1~cal4) (Foot-and-mouth disease virus serotype O); experiment: sandwich ELISA, cal1, 1E58 coat 4 ug/ml, 1E58-HRP 0.6 ug/ml, 450 nm
[8] = target: FMDV 혈청형 O O/Hapcheon/KOR/2014 (Foot-and-mouth disease virus serotype O); experiment: sandwich ELISA, 1E58 coat 4 ug/ml, 1E58-HRP 0.3 ug/ml, virus culture fluid
[9] = target: FMDV 혈청형 O 보은 1차 (Foot-and-mouth disease virus serotype O); experiment: as above
[10] = target: FMDV 혈청형 O Yunlin/Taiwan/97 (Foot-and-mouth disease virus serotype O); experiment: as above
[11] = target: FMDV 혈청형 A 연천주 (Foot-and-mouth disease virus serotype A); experiment: as above
[12] = target: FMDV 혈청형 O 진천 (Foot-and-mouth disease virus serotype O); experiment: as above
[13] = target: FMDV 혈청형 Asia1 Shamir (Foot-and-mouth disease virus serotype Asia1); experiment: as above
[14] = target: FMDV 혈청형 C C3/Resende/BRA/55 (Foot-and-mouth disease virus serotype C); experiment: as above
[15] = target: FMDV 혈청형 SAT3 SAT3/ZIM/4/81 (Foot-and-mouth disease virus serotype SAT3); experiment: as above
[16] = target: FMDV 혈청형 O 정읍 (Foot-and-mouth disease virus serotype O); experiment: as above
[17] = target: FMDV 혈청형 O O1 Manisa (Foot-and-mouth disease virus serotype O); experiment: as above
[18] = target: FMDV 혈청형 Asia1 MOG/05 (Foot-and-mouth disease virus serotype Asia1); experiment: as above
[19] = target: FMDV 혈청형 O Yang-Ju (Foot-and-mouth disease virus serotype O); experiment: as above
[20] = target: FMDV 혈청형 SAT1 SAT1/BOT/1/68 (Foot-and-mouth disease virus serotype SAT1); experiment: as above
[21] = target: FMDV 혈청형 SAT2 SAT2/ZIM/5/81 (Foot-and-mouth disease virus serotype SAT2); experiment: as above
[22] = target: FMDV 혈청형 A Malaysia97 (Foot-and-mouth disease virus serotype A); experiment: as above
[23] = target: FMDV 혈청형 Asia1 CAM/9/80 (Foot-and-mouth disease virus serotype Asia1); experiment: as above
[24] = target: 구제역 바이러스 혈청형 O 배양액(cal1~cal4) (Foot-and-mouth disease virus serotype O); experiment: sandwich ELISA, cal4, 1E58 coat 4 ug/ml, 1E58-HRP 0.8 ug/ml, 450 nm
[25] = target: 구제역 바이러스 혈청형 O 배양액(cal1~cal4) (Foot-and-mouth disease virus serotype O); experiment: sandwich ELISA, cal3, 1E58 coat 2 ug/ml, 1E58-HRP 0.2 ug/ml, 450 nm
[26] = target: 구제역 바이러스 혈청형 O 배양액(cal1~cal4) (Foot-and-mouth disease virus serotype O); experiment: sandwich ELISA, cal1, 1E58 coat 1 ug/ml, 1E58-HRP 0.6 ug/ml, 450 nm
[27] = target: 구제역 바이러스 혈청형 O 배양액(cal1~cal4) (Foot-and-mouth disease virus serotype O); experiment: sandwich ELISA, cal4, 1E58 coat 8 ug/ml, 1E58-HRP 0.8 ug/ml, 450 nm
[28] = target: 구제역 바이러스 혈청형 O 배양액(cal1~cal4) (Foot-and-mouth disease virus serotype O); experiment: sandwich ELISA, cal3, 1E58 coat 4 ug/ml, 1E58-HRP 0.2 ug/ml, 450 nm
[29] = target: 구제역 바이러스 혈청형 O 배양액(cal1~cal4) (Foot-and-mouth disease virus serotype O); experiment: sandwich ELISA, cal3, 1E58 coat 4 ug/ml, 1E58-HRP 0.6 ug/ml, 450 nm

B1: 단클론항체 1E58 (antibody, V domains shown)
VH: EFQLQQSRPELAKPGASVKISCKTSGHTFTTYTMHWVKQSHVKSLEWIGCFNPNNGGATYNQKFKGKATLTMDKSSNTAYVEVRSLTSDDSAVYYCAYGNYVNFDYWGQGTTLTVSS
VL: DIVLTQSPASLAVSLGQRATISYRASKSVSTSGYSYMHWNQQKPGQPPRLLIYLVSNLESGVPARFSGSGSGTDFTLNIHPVEEEDAATYYCQHIRELTRSEGGPSWKN
O.D [1]: 2.49 O.D | O.D [2]: 0.62 O.D | O.D [3]: 2.08 O.D | O.D [4]: 0.83 O.D | O.D [5]: 3.08 O.D | O.D [6]: 0.77 O.D | O.D [7]: 4 O.D | O.D (450nm) [8]: 3.99 O.D | O.D (450nm) [9]: 3.64 O.D | O.D (450nm) [10]: 4 O.D | O.D (450nm) [11]: 3.5 O.D | O.D (450nm) [12]: 4 O.D | O.D (450nm) [13]: 4 O.D | O.D (450nm) [14]: 3.75 O.D | O.D (450nm) [15]: 3.6 O.D | O.D (450nm) [16]: 3.86 O.D | O.D (450nm) [17]: 4 O.D | O.D (450nm) [18]: 3.85 O.D | O.D (450nm) [19]: 4 O.D | O.D (450nm) [20]: 2.22 O.D | O.D (450nm) [21]: 1.95 O.D | O.D (450nm) [22]: 4 O.D | O.D (450nm) [23]: 4 O.D | O.D [24]: 1.46 O.D | O.D [25]: 0.98 O.D | O.D [26]: 2.98 O.D | O.D [27]: 0.59 O.D | O.D [28]: 1.14 O.D | O.D [29]: 2.15 O.D
